Results from PMC8054679.

Columns and labels:
Hsp70 (Homo sapiens) = conditions: cited from earlier work
SmBiT-CHIP-FLAG = assay: split reporter
SmBiT-CHIP-FLAG, sequence (Q9UNE7 whole entry): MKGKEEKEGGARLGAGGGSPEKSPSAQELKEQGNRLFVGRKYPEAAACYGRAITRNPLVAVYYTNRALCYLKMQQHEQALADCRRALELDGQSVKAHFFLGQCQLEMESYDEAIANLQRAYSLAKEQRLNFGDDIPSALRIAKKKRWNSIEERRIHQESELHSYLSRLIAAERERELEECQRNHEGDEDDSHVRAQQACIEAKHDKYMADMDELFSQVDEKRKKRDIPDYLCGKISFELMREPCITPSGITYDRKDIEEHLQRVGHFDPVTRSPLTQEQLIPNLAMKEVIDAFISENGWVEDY

CHIP TPR, sequence (Q9UNE7 21-154): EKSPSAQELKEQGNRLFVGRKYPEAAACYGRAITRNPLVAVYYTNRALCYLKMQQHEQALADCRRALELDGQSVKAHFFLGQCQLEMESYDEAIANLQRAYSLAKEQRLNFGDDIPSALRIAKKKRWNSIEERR

IC50 (SmBiT-CHIP-FLAG) [nM]	percent reduction of luminescence at 10 μM (SmBiT-CHIP-FLAG) [%]	Substance	Kd (Hsp70 (Homo sapiens)) [nM]
–	–	CHIP TPR (from UniProt Q9UNE7)	600
2600	40	R9-LWWPD (peptide; other documents disagree on this pair)	–
